Where “and” joins values, the source holds several entries; their conditions need not be identical. Equal values may be shown once.
Key:
[1] = target: T1, mouse sFlt-1 (mouse, UniProt P35969 23-759, limits assumed); experiment: SPR (Biacore T200), msFlt-1 captured, 1:1 model; column 'KD (M) Average' of the two runs
T1 construct: also called msFlt-1
T1 sequence (looked up): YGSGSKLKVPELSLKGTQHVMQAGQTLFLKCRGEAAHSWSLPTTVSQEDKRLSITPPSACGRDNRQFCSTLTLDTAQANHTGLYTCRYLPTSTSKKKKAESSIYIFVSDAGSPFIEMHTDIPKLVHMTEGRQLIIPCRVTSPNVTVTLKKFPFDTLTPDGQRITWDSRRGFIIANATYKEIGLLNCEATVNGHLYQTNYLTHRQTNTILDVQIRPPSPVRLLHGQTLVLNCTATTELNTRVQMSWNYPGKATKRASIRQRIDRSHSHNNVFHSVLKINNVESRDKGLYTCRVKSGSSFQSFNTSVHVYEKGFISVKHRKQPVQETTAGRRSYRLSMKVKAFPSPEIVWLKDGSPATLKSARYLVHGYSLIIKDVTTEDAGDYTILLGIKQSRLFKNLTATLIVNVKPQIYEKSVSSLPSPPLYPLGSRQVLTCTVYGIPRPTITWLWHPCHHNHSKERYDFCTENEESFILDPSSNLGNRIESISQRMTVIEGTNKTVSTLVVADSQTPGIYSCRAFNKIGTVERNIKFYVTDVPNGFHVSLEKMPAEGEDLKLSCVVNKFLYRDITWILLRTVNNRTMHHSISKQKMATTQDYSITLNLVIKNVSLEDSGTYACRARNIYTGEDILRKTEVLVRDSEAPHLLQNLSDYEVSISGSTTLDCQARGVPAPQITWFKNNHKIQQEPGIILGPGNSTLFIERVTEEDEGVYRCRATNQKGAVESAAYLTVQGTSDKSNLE
Procedure: (§1) In the capture approach, goat anti-hIgG Fc polyclonal antibody (30 μg/mL in 10 mM acetate buffer, pH 5.0) was immobilized onto a CM5 chip by amine coupling. The immobilization level or surface density of anti-hIgG Fc antibody was controlled between 6000 to 8000 RU. For the kinetic study, sFlt-1-Fc was captured on the surface that was immobilized with the anti-hIgG Fc antibody, before each injection of PLGF variants. The capture level of sFlt-1-Fc (10 μg/mL) was controlled by varying contact time, 10 to 30 seconds, at flow rate 10 μL/min. PLGF variants, as analytes, were serially diluted in HBS-EP+ buffer from 50 to 0.03 nM, and injected to the surface that captured sFlt-1-Fc. The association time for each PLGF variants injection was 300 seconds at 30 μL/min and dissociation time was 600 seconds at the same flow rate. After each round of PLGF variants' injection, a regeneration of […] H3PO4 pH1.8 at 60 μl/min for 90 seconds was performed. The regeneration step effectively removes the complex of sFlt-1-Fc and PLGF variants from the surface that was immobilized with anti-hIgG Fc antibody. A stabilization step was applied for 90 seconds after regeneration.
(§2) The binding characteristics of PLGF variants, PLGF C59A, human WT PLGF and mouse WT PLGF, with msFlt-1 were studied in the mouse model. The same capture approach for hsFlt-1 was used for the msFlt-1.

[2] = target: T1, mouse sFlt-1; experiment: SPR (Biacore T200), msFlt-1 captured, PLGF as analyte, 1:1 model
Procedure: as §1, §2

[3] = target: T2, human sFlt-1-Fc (human, UniProt P17948-2 27-687, limits assumed); experiment: surface plasmon resonance (BIACORE), overlaid multi-cycle sensorgrams with 1:1 binding model fit; the sheet says only 'sFlt-1', neither species nor format is printed
T2 construct: A bought fusion protein; also called hsFlt-1-Fc; hsFlt-1-Fc dimer; not shown: Fc part (captured and detected with anti-human IgG Fc)
T2 sequence (P17948 other isoform, or with tags, fused parts or gaps limits assumed): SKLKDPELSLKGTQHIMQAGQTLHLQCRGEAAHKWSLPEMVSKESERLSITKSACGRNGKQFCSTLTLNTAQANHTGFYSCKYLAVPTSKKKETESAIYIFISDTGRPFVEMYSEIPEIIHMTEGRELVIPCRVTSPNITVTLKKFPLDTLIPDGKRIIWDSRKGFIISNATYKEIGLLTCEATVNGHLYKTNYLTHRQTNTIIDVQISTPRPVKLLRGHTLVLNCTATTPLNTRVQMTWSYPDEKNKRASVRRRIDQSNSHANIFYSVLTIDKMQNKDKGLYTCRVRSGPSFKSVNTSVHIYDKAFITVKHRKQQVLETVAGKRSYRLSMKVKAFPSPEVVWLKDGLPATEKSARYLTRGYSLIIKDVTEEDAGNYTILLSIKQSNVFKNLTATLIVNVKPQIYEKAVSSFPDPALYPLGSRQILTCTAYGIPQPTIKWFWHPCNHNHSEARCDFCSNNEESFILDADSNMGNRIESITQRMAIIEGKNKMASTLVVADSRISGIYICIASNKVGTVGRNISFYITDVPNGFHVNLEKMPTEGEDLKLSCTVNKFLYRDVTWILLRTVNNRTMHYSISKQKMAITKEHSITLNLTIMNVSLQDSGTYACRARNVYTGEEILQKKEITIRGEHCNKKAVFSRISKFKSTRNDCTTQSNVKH

[4] = target: T2, human sFlt-1-Fc; experiment: isothermal titration calorimetry, PLGF C59A (77 uM) titrated into sFlt-1-Fc (5.3 uM), 25 C, PBS pH 7.4
Procedure: (§3) PLGF C59A and human sFlt-1-Fc (Cat#321-FL/CF, R&D System) were extensively dialyzed against PBS pH 7.4 buffer overnight. After dialysis, the proteins were concentrated using VIVISPIN 500 (10 kDa Cutoff, Cat# vs0601). The ratio of PLGF C59A in syringe to sFlt-1-Fc in the cell was about 10:1, with PLGF C59A concentration to be 77 μM, and the concentration of sFlt1-Fc to be 5.3 μM. Titrations were carried out using 2.0-μL injections for total 18 injections. An initial 2-μl injection was carried out but the data not included in the final data analysis. All titrations were done at 25° C. The binding isotherm was fitted with nonlinear regression on ORIGIN (GE MICROCAL, INC). The stoichiometry (N) of the binding interaction, the equilibrium association constant (KA) and enthalpy (ΔH) of the complex formation were calculated from the titration data.

[5] = target: T1, mouse sFlt-1; experiment: SPR, capture approach
Procedure: as §1, §2

[6] = target: T2, human sFlt-1-Fc; experiment: SPR (Biacore T200), hsFlt-1-Fc, 1:1 model; format of this run (capture or single cycle) not marked in the table
Procedure: In the single cycle kinetic approach, PLGF C59A at 50 μg/ml in 10 mM acetate buffer pH 5.0 was immobilized via ligand thiol coupling to ˜200 RU. sFlt-1-Fc dimer was serially diluted in HBS-EP+ running buffer from 30 to 1.875 nM. The sFlt-1-Fc dimer was injected from low to high concentration sequentially, without dissociation phase and regeneration step. The association step was 180 seconds per injection at 30 μL/min. At the end of the last injection, one single dissociation step was performed at 30 μL/min, for one hour to collect sufficient dissociation data.
Due to the nonspecific binding of hsFlt-1 on the reference cells and the poor regeneration conditions for PLGF C59A, a single cycle kinetic method were adopted by immobilizing PLGF C59A vial thiol coupling, and injecting hsFlt-1 as analyte. In the single cycle kinetic approach, PLGF C59A was immobilized onto CM4 chips through free cysteine residuals, C69 and C125, in PLGF C59A. Concentration of the Flt1-Fc dimer injected was varied from 0.37 to 30 nM. The binding characteristics, association rate constant (Ka), dissociation rate constant (Kd) and equilibrium dissociation constant (KD), are summarized in Table 6.

[7] = target: T2, human sFlt-1-Fc; experiment: SPR (Biacore T200), hsFlt-1-Fc, 1:1 model; column 'KD (M) Average' of the two runs
[8] = target: T2, human sFlt-1-Fc; experiment: VEGF:sFlt1 inhibition ELISA: binding of human sFlt-1 Fc to immobilized human VEGF in the presence of PLGF, detected with HRP anti-human IgG Fc, normalized to binding without PLGF
Procedure: Inhibition of binding of VEGF to sFlt-1 by WT PLGF and PLGFC59A was also assessed by ELISA. The addition of recombinant human […] inhibited binding of recombinant VEGF to recombinant human sFlt-1 chimera (FIG. 6). Binding of human sFlt-1 Fc to immobilized human VEGF was quantified by immunodetection with HRP conjugated anti-human IgG Fc. Data were normalized to binding sFlt-1 Fc to VEGF in the absence of PLGF.

[9] = target: T2, human sFlt-1-Fc; experiment: isothermal titration calorimetry, PLGF C59A in the syringe titrated into sFlt-1-Fc in the cell, 25 C, PBS pH 7.4, model OneSites
Procedure: as §3

[10] = target: T2, human sFlt-1-Fc; experiment: SPR (Biacore T200), hsFlt-1-Fc captured by anti-hIgG Fc, PLGF as analyte, 1:1 model
Procedure: as §1
Two BIACORE experiment formats, single cycle kinetics and anti-Fc capture approach, were used to study binding characteristic of PLGF variants with hsFlt-1.

[11] = target: T2, human sFlt-1-Fc; experiment: SPR (Biacore T200), hsFlt-1-Fc captured by anti-hIgG Fc, PLGF as analyte, 1:1 model; first of the two unlabelled rows for Human WT-PLGF on Human sFlt-1
[12] = target: Flt-1 receptor (plate based assay) (Homo sapiens (Human), UniProt P17948 27-758); experiment: plate based assay: Flt-1 captured by coated mouse monoclonal anti-Flt-1 antibody, bound PLGF detected with biotinylated goat anti-PLGF antibody and streptavidin-HRP, OD450
Flt-1 receptor (plate based assay), sequence (P17948 27-758 limits assumed): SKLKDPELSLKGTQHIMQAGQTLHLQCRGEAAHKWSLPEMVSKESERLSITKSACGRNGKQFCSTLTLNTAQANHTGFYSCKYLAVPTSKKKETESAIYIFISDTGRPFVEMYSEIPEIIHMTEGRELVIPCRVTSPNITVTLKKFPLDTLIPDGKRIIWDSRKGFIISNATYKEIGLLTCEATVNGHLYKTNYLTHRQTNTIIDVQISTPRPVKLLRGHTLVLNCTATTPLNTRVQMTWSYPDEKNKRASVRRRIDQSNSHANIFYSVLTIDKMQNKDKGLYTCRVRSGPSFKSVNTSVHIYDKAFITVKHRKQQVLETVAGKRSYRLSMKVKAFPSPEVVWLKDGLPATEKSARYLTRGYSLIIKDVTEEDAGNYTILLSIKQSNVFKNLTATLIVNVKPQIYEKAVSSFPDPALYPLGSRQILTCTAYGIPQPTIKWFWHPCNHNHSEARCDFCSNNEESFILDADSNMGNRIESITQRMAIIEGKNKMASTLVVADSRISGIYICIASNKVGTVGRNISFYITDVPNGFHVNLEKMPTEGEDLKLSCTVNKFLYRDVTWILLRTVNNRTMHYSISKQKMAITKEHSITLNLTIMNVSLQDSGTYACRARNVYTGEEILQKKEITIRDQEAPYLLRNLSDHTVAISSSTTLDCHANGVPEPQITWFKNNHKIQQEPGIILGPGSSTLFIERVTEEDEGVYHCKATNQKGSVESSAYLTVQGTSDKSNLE
Procedure: A plate based assay was performed to examine the binding of mutant PLGF protein to Flt-1. Briefly, plates were coated with a mouse monoclonal anti-Flt-1 antibody for capture. After washing and blocking steps, 250 ng/ml of Flt-1 receptor was incubated with WT PLGF (0-400,000 pg/ml) or PLGF C59A (0-40,000 pg/ml) in the plate. After further washing steps, bound WT or mutant PLGF were detected using a biotinylated goat anti-PLGF antibody and streptavidin-HRP immunodetection system. PLGF C59A appeared to bind Flt-1 with lower affinity than WT PLGF. (FIG. 1).

B1: mouse WT PLGF (ligand, UniProt P49764 19-158, looked up)
chain: VHSQGALSAGNNSTEVEVVPFNEVWGRSYCRPMEKLVYILDEYPDEVSHIFSPSCVLLSRCSGCCGDEGLHCVPIKTANITMQILKIPPNRDPHFYVEMTFSQDVLCECRPILETTKAERRKTKGKRKRSRNSQTEEPHP
Kd [1]: 20.5 pM | Kd [2]: 30.1 pM and 10.9 pM | koff [2]: 0.000135 s⁻¹ and 9.69e-05 s⁻¹ | kon [2]: 4.49e+06 M⁻¹ s⁻¹ and 8.86e+06 M⁻¹ s⁻¹

B2: PLGF C59A (ligand)
chain: LPAVPPQQWALSAGNGSSEVEVVPFQEVWGRSYCRALERLVDVVSEYPSEVEHMFSPSAVSLLRCTGCCGDENLHCVPVETANVTMQLLKIRSGDRPSYVELTFSQHVRCECRPLREKMKPERCGDAVPRRHHHHHH
notes: Expressed in human fibrosarcoma cells, purified on a Nickel column, glycosylated; RC4 96.7% monomer; R3 97.1% monomer, formulated in 1 mM DTT; also called C59A PLGF; not shown: Tev protease cleavage site added at the C-terminus
Kd [3]: 572 pM | koff [3]: 0.000338 s⁻¹ | kon [3]: 592000 M⁻¹ s⁻¹ | Kd [4]: ~49000 pM | Kd [1]: 5170 pM | fold weaker affinity than human WT PLGF with msFlt-1 [5]: ~90 fold | fold weaker affinity than mouse WT PLGF with msFlt-1 [5]: ~250 fold | Kd [6]: 1610 pM and 886 pM | koff [6]: 0.000372 s⁻¹ and 0.000234 s⁻¹ | kon [6]: 231000 M⁻¹ s⁻¹ and 264000 M⁻¹ s⁻¹ | Kd [7]: 1250 pM | IC50 [8]: 28300 pM | Ka [9]: 2.03e+07 M⁻¹ | ΔH [9]: -12.8 kcal/mol | ΔS [9]: -9.4 cal/mol/deg | Kd [2]: 7220 pM and 3120 pM | koff [2]: 0.000496 s⁻¹ and 0.000633 s⁻¹ | kon [2]: 159000 M⁻¹ s⁻¹ and 87700 M⁻¹ s⁻¹

B3: wild-type human PLGF protein (ligand)
chain: LPAVPPQQWALSAGNGSSEVEVVPFQEVWGRSYCRALERLVDVVSEYPSEVEHMFSPSCVSLLRCTGCCGDENLHCVPVETANVTMQLLKIRSGDRPSYVELTFSQHVRCECRPLREKMKPERCGDAVPRR
notes: also called WT PLGF; Human WT-PLGF
Kd [10]: 25.9 pM and 55.1 pM | koff [10]: 6.03e-05 s⁻¹ and 8.86e-05 s⁻¹ | kon [10]: 1.61e+06 M⁻¹ s⁻¹ | kon [11]: 2.33e+06 M⁻¹ s⁻¹ | Kd [1]: 56.5 pM | Kd [7]: 40.5 pM | IC50 [8]: 4590 pM | EC50 (read off the curve) [12]: ~200 pM | koff [2]: 0.000243 s⁻¹ and 0.000152 s⁻¹ | kon [2]: 2.73e+06 M⁻¹ s⁻¹ and 6.36e+06 M⁻¹ s⁻¹
